Reference: PMC7982615, “Phase 1 study of telisotuzumab vedotin in Japanese patients with advanced solid tumors” (Cancer Medicine, 2021)
Entries after “also recorded” stand apart in the source; their conditions may differ.

Test: Safety and tolerability (TEAEs, DLTs, AESIs) in phase 1 dose-escalation study of teliso‐v
Format: in vivo, human
Settings: for Dose‐limiting toxicity (DLT) events: 2.4 and 2.7 mg/kg IV Q3W, dose escalation
Protocol: This phase 1, open‐label, dose‐escalation clinical trial was conducted at two sites in Japan (NCT03311477). Enrollment began on November 6, 2017, and the trial was completed on March 4, 2019.
Escalation into the higher dose level proceeded if the first three evaluable patients in the lower dose level completed the first‐cycle (for at least 21 days) safety assessment without experiencing a dose‐limiting toxicity (DLT). DLT evaluations for dose escalation and determination of RP2D were carried out by investigators, study sponsor, and an independent safety monitor. […] No premedication was required. On the basis of confirmed availability of archival tumor tissue at enrollment, patients were retrospectively analyzed for c‐Met expression and MET amplification. c‐Met expression was determined by immunohistochemistry (IHC), and MET amplification was determined by fluorescence in situ hybridization or sequencing of plasma or tumor DNA.
Safety assessments included treatment‐emergent adverse events (TEAEs) graded according to the National Cancer Institute Common Terminology Criteria for Adverse Events version 4.03. TEAEs, vital signs, physical examinations, electrocardiograms, laboratory tests, and ECOG performance status were monitored during the study. Any grade ≥3 study drug‐related nonhematologic toxicity was documented as a DLT, except as follows: grade 3 nausea or vomiting lasting ≤48 hours that was successfully managed with antiemetics; grade 3 diarrhea successfully managed with antidiarrheal; grade 3 constipation lasting ≤7 days; grade 3 acute infusion reaction that resolved to grade ≤1 within 24 hours after the end of dosing; grade 3 and 4 laboratory tests including but not limited to lactate dehydrogenase, alkaline phosphatase, and gamma‐glutamyl transferase that were considered nonclinically significant by the investigator; liver function test abnormalities; grade 3 and 4 electrolyte imbalance unless associated with clinical symptomatology despite supplementation; and grade 3 hyperglycemia that was manageable without hospitalization. The following hematologic toxicities were documented as a DLT: any grade 4 hematologic toxicity (excluding febrile neutropenia or leukopenia lasting for ≤7 days, or lymphopenia); anemia requiring red blood cell transfusion; thrombocytopenia requiring platelet transfusion; grade 3 thrombocytopenia in the presence of grade ≥2 bleeding; and grade ≥3 febrile neutropenia. Toxicity management criteria are described in the Supplementary appendix.
All data were summarized and tabulated by dose cohort. Categoric data were summarized in terms of frequency counts and percentages. Continuous data were summarized using descriptive statistics, including number of observations, mean, standard deviation, median, minimum, and maximum. No formal statistical analysis was performed for efficacy variables, which were all exploratory in nature. ORR was defined as the proportion of patients with a confirmed partial response (PR) or complete response (CR). Duration of response was defined as time from a patient's initial objective response to the first date of disease progression (PD) or death. The overall disease control rate was defined as the proportion of patients with CR, PR, or stable disease (SD). […] PFS was estimated using the Kaplan–Meier method. Efficacy analyses are presented with two‐sided exact 95% binomial CI.

[1] = total, N = 9, listed as teliso-v
[2] = total, N = 9, listed as telisotuzumab vedotin
[3] = total, N = 9, listed as teliso‐v

Question: What does the source list for “Teliso‐v: antibody‐drug conjugate: anti–c‐Met humanized monoclonal antibody ABT‐700 coupled to monomethyl auristatin E through a valine‐citrulline linker, drug:antibody ratio approximately three”?
Answer: Dose‐limiting toxicity (DLT) events: no DLTs were reported; also recorded: no DLTs observed; Dose‐limiting toxicity (DLT) events (listed as telisotuzumab vedotin): no dose‐limiting toxicity events were observed; Hematologic AEs (AESI) (2.4‐mg/kg dose level): 33%; Peripheral neuropathy events (AESI) (2.4‐mg/kg dose level): three; Hematologic AEs (AESI) (2.7‐mg/kg dose level): 67%; Ocular AESIs (2.7‐mg/kg dose level): three; Peripheral neuropathy events (AESI) (2.7‐mg/kg dose level): three; Frequency of corneal epithelium disorder (Japanese patients, four of nine): 44.4%; AEs leading to withdrawal of consent (N = 9): three; Dry eye (ocular AESI) (N = 9): one; Keratitis (ocular AESI) (N = 9): one; Patients with at least one TEAE (N = 9): nine; Patients with at least one TEAE related to teliso‐v (N = 9): nine; Patients with serious AEs (N = 9): two; Punctate keratitis (ocular AESI) (N = 9): two; Serious AEs, number of events (N = 9): Three; Visual impairment (ocular AESI) (N = 9): one; Maximum tolerated dose (doses up to 2.7 mg/kg Q3W, 3 + 3 design): not reached; Deaths (either dose level): No deaths were reported; Recommended phase 2 dose (RP2D) (every 3 weeks, Japanese patients): 2.7 mg/kg; Ocular AESIs (grade 1 or 2, total, N = 9): 44%; TEAE leading to treatment discontinuation (grade 2, teliso‐v related serious AE, 2.7‐mg/kg dose level): gait disturbance; Peripheral neuropathy events (AESI) (grades 1 and 2, total, N = 9): 67%; Alanine aminotransferase increased, TEAE regardless of relationship (total, N = 9): 2 (22) n (%); Alanine aminotransferase increased, TEAE related to teliso‐v (total, N = 9): 2 (22) n (%); Alopecia, TEAE regardless of relationship (total, N = 9): 2 (22) n (%); Alopecia, TEAE related to teliso‐v (total, N = 9): 2 (22) n (%); Anemia, TEAE regardless of relationship (total, N = 9): 2 (22) n (%); Aspartate aminotransferase increased, TEAE regardless of relationship (total, N = 9): 2 (22) n (%); Aspartate aminotransferase increased, TEAE related to teliso‐v (total, N = 9): 2 (22) n (%); Back pain, TEAE regardless of relationship (total, N = 9): 2 (22) n (%); Constipation, TEAE regardless of relationship (total, N = 9): 2 (22) n (%); Decreased weight, TEAE regardless of relationship (total, N = 9): 33%; Decreased white blood cell count, TEAE regardless of relationship (total, N = 9): 33%; Decreased white blood cell count, TEAE related to teliso‐v (total, N = 9): 33%; Diarrhea, TEAE regardless of relationship (total, N = 9): 2 (22) n (%); Fatigue, TEAE regardless of relationship (total, N = 9): 2 (22) n (%); Fatigue, TEAE related to teliso‐v (total, N = 9): 2 (22) n (%); Hypoalbuminemia, TEAE regardless of relationship (total, N = 9): 2 (22) n (%); Malaise, TEAE regardless of relationship (total, N = 9): 2 (22) n (%); Malaise, TEAE related to teliso‐v (total, N = 9): 2 (22) n (%); Neutrophil count decreased, TEAE regardless of relationship (total, N = 9): 2 (22) n (%); Neutrophil count decreased, TEAE related to teliso‐v (total, N = 9): 2 (22) n (%); Peripheral neuropathy, TEAE regardless of relationship (total, N = 9): 2 (22) n (%); Peripheral neuropathy, TEAE related to teliso‐v (total, N = 9): 2 (22) n (%); Punctate keratitis, TEAE regardless of relationship (total, N = 9): 2 (22) n (%); Punctate keratitis, TEAE related to teliso‐v (total, N = 9): 2 (22) n (%); Weight decreased, TEAE regardless of relationship (total, N = 9): 3 (33) n (%); Weight decreased, TEAE related to teliso‐v (total, N = 9): 2 (22) n (%); White blood cell count decreased, TEAE regardless of relationship (total, N = 9): 3 (33) n (%); White blood cell count decreased, TEAE related to teliso‐v (total, N = 9): 3 (33) n (%); Decreased appetite, TEAE regardless of relationship [1]: 3 (33) n (%); Nausea, TEAE regardless of relationship [1]: 3 (33) n (%); Peripheral sensory neuropathy, TEAE regardless of relationship [1]: 4 (44) n (%); Decreased appetite, TEAE related to teliso‐v [2]: 33%; Nausea, TEAE related to teliso‐v [2]: 33%; Peripheral sensory neuropathy, TEAE related to teliso‐v [2]: 44%; Decreased appetite, TEAE regardless of relationship [3]: 33%; Decreased appetite, TEAE related to teliso‐v [3]: 3 (33) n (%); Nausea, TEAE regardless of relationship [3]: 33%; Nausea, TEAE related to teliso‐v [3]: 3 (33) n (%); Peripheral sensory neuropathy, TEAE regardless of relationship [3]: 44%; Peripheral sensory neuropathy, TEAE related to teliso‐v [3]: 4 (44) n (%)
